{"source": "FireProtDB (doi:10.1021/bi00231a002)", "parents": {"B1": {"name": "Cytochrome c2, P00094 (parent)", "chain": "MKISLTAATVAALVLAAPAFAGDAAKGEKEFNKCKTCHSIIAPDGTEIVKGAKTGPNLYGVVGRTAGTYPEFKYKDSIVALGASGFAWTEEDIATYVKDPGAFLKEKLDDKKAKTGMAFKLAKGGEDVAAYLASVVK"}}, "variants_of": "B1", "conditions": "Rhodobacter capsulatus (strain ATCC BAA-309 / NBRC 16581 / SB1003); pH 7.5; 20 °C; GdnHCl; CD; Tris-HCl 20 mM; NaCl 40 mM; structure 1C2R; whole UniProt chain shown", "note": "Several values for one entry are separate records, joined by “and”; a condition that tells them apart may be missing. Equal values may be shown once.", "data": [{"variant": "MKISLTAATVAALVLAAPAFAGDAAKGEKEFNKCKTCHSIIAPDGTEIVKGAKTGPNLYGVVGRTAGTYPEFKYKDSIVALGASGFAWTEEDIATCVKDPGAFLKEKLDDKKAKTGMAFKLAKGGEDVAAYLASVVK", "note": "[Y96C]", "values": [{"measurement": "denaturant m value", "result": "2.57 kcal/mol/M and 1.96 kcal/mol/M"}, {"measurement": "denaturant midpoint (higher = more stable)", "result": "1.44 M and 2.24 M"}, {"measurement": "unfolding free energy", "result": "3.71 kcal/mol and 4.4 kcal/mol"}]}, {"variant": "MKISLTAATVAALVLAAPAFAGDAAKGEKEFNKCKTCHSIIAPDGTEIVKGAKTGPNLYGVVGRTAGTYPEFKYKDSIVALGASGFAWTEEDIATFVKDPGAFLKEKLDDKKAKTGMAFKLAKGGEDVAAYLASVVK", "note": "[Y96F]", "values": [{"measurement": "denaturant m value", "result": "2.59 kcal/mol/M and 1.43 kcal/mol/M"}, {"measurement": "denaturant midpoint (higher = more stable)", "result": "1.71 M and 3.32 M"}, {"measurement": "unfolding free energy", "result": "4.42 kcal/mol and 4.75 kcal/mol"}]}]}
